27 substances from patent EP1379283B1, “IDENTIFICATION OF TARGET-SPECIFIC FOLDING SITES IN PEPTIDES AND PROTEINS” (Palatin Technologies, Inc., priority 2000, dated 2002) can be followed below.

Experiment [1] deals with uPA receptor (urokinase-type plasminogen activator receptor) on U937 cells (UniProt Q03405). The experiment can be described thus: competition receptor-binding assay on U937 cells, ATF as competing ligand, metallopeptide at 1 µM.
The target of experiment [2] is oxytocin receptor of rat uterus cell membranes (rat) (UniProt P70536). The experiment can be described thus: competition with 3H-oxytocin on rat uterus membranes, metallopeptide at 1 µM.
Chain of oxytocin receptor of rat uterus cell membranes (rat) (P70536 whole entry): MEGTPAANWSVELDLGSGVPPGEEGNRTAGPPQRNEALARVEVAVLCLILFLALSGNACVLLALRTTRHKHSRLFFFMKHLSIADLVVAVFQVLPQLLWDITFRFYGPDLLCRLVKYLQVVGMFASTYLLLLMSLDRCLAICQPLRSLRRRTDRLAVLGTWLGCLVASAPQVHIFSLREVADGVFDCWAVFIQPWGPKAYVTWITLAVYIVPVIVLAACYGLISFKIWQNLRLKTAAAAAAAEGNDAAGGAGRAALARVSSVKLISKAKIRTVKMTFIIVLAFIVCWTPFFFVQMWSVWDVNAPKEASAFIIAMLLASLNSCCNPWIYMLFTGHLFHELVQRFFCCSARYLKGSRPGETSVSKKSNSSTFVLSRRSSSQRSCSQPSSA
The target in experiment [3] is vasopressin-1 receptor of rat liver cell membranes (rat) (UniProt P30560). The experiment can be described thus: competition with 3H-vasopressin-1 antagonist on rat liver membranes, metallopeptide at 1 µM.
Chain of vasopressin-1 receptor of rat liver cell membranes (rat) (P30560 whole entry): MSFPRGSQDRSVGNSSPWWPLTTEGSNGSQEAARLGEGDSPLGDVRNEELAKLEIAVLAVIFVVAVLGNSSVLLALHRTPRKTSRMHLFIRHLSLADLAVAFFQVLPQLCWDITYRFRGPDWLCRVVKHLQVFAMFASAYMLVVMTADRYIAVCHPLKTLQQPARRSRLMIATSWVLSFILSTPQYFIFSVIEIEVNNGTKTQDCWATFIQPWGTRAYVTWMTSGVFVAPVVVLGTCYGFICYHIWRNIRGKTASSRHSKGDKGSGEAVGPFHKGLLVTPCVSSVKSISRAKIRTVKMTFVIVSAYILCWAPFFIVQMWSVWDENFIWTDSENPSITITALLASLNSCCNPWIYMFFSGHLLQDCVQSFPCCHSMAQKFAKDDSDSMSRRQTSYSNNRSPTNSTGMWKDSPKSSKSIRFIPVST
In experiment [4] the target is angiotensin-II receptor of human neuroblastoma cells (KAN-TS) (human). The experiment can be described thus: competition with 125I-Tyr4,Sar1,Ile8-angiotensin II on KAN-TS human neuroblastoma cell membranes, metallopeptide at 1 µM.
Chain of angiotensin-II receptor of human neuroblastoma cells (KAN-TS) (human) (P30556 whole entry): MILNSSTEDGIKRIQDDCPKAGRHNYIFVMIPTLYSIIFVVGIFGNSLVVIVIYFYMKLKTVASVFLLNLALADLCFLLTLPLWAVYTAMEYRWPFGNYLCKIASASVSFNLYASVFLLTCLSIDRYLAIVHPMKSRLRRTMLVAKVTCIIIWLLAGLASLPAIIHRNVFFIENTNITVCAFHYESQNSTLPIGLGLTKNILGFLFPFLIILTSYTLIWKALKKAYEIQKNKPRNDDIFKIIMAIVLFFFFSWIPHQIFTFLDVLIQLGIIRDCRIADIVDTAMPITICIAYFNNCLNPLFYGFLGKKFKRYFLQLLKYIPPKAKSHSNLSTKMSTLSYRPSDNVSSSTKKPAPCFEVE

Chain of uPA receptor (urokinase-type plasminogen activator receptor) on U937 cells (Q03405 23-305): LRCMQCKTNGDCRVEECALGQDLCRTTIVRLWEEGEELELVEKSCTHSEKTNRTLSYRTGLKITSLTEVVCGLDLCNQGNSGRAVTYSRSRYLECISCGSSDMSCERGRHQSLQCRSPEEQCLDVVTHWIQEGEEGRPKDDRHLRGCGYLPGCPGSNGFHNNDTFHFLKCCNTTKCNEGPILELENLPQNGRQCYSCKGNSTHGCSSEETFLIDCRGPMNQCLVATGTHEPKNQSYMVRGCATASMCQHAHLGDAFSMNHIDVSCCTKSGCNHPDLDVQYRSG

As usually defined, the % Inhibition is the relative decrease from the control value, in per cent. “Re-complexed Ac-Val-Ser-Asn-Lys-Tyr-Phe-Ser-Asn-Ile-His-Cys-Trp-NH2 (SEQ ID NO:3) (peptide)”: in experiment [1], the % Inhibition at 1 µM was determined as 106%.

With “Re-complexed Ala-Tyr-Ile-Gln-Asn-Cys-Ala-Pro-Leu-Gly-NH2 (SEQ ID NO:155) (peptide)”, the values for the % Inhibition at 1 µM in experiment [2] and in experiment [3] were 42% and 0%, respectively.

Regarding “Re-complexed Sar-Arg-Val-Cys-Tyr-Ile-His-Pro-Thr (SEQ ID NO:164) (peptide)”, in experiment [4], the % Inhibition at 1 µM was found to be 1%. As to “Re-complexed Sar-Arg-Val-Tyr-Ile-His-Cys-Pro-Thr (SEQ ID NO:161) (peptide)”, the % Inhibition at 1 µM in experiment [4] stood at 60%.

Turning to “Re-complexed Ala-Tyr-Ile-Gln-Asn-Ala-Ala-Leu-Gly-Cys-NH2 (SEQ ID NO:150) (peptide)”, the % Inhibition at 1 µM in experiment [2] and in experiment [3] was 0% throughout. As for “Re-complexed Ac-Val-Ser-Asn-Lys-Tyr-Phe-Ser-Asn-Ile-His-Trp-Cys-NH2 (SEQ ID NO:12) (peptide)”, the % Inhibition at 1 µM in experiment [1] stood at 0%.

As for “Re-complexed Ala-Tyr-Ile-Gln-Cys-Asn-Ala-Pro-Leu-Gly-NH2 (SEQ ID NO:156) (peptide)”, the % Inhibition at 1 µM in experiment [2] came out at 18%; in experiment [3] it was 0%.

As to “Re-complexed Sar-Arg-Val-Tyr-Ile-His-Cys-Gly-Thr (SEQ ID NO:166) (peptide)”, the % Inhibition at 1 µM in experiment [4] came out at 11%. “Re-complexed Sar-Arg-Val-Tyr-Ile-Cys-His-Pro-Thr (SEQ ID NO:162) (peptide)”: the % Inhibition at 1 µM in experiment [4] worked out at 20%.

As for “Re-complexed Ala-Tyr-Ile-Gln-Asn-Ala-Ala-Leu-Cys-Gly-NH2 (SEQ ID NO:151) (peptide)”, the % Inhibition at 1 µM in experiment [2] and in experiment [3] was 0% in each case. In the case of “Re-complexed Ac-Val-Ser-Asn-Lys-Tyr-Cys-Phe-Ser-Asn-Ile-His-Trp-NH2 (SEQ ID NO:7) (peptide)”, in experiment [1], the % Inhibition at 1 µM was 18%. Consider “Re-complexed Ac-Val-Ser-Asn-Cys-Lys-Tyr-Phe-Ser-Asn-Ile-His-Trp-NH2 (SEQ ID NO:5) (peptide)”, for which the % Inhibition at 1 µM in experiment [1] was 0%. Take “Re-complexed Sar-Arg-Cys-Val-Tyr-Ile-His-Pro-Thr (SEQ ID NO:165) (peptide)”: the % Inhibition at 1 µM in experiment [4] turned out to be 1%.

As to “Re-complexed Sar-Arg-Val-Tyr-Ile-His-Gly-Cys-Thr (SEQ ID NO:160) (peptide)”, the % Inhibition at 1 µM in experiment [4] was determined as 5%. For “Re-complexed Ala-Tyr-Cys-Ile-Gln-Asn-Ala-Pro-Leu-Gly-NH2 (SEQ ID NO:158) (peptide)”, the % Inhibition at 1 µM in experiment [2] was determined as 6%; in experiment [3], 1%. “Re-complexed Ala-Tyr-Ile-Cys-Gln-Asn-Ala-Pro-Leu-Gly-NH2 (SEQ ID NO:157) (peptide)”: the % Inhibition at 1 µM in experiment [2] and in experiment [3] was 0% in each case. As to “Re-complexed Sar-Arg-Val-Tyr-Cys-Ile-His-Pro-Thr (SEQ ID NO:163) (peptide)”, the % Inhibition at 1 µM in experiment [4] came to 12%.

With “Re-complexed Ac-Val-Ser-Asn-Lys-Tyr-Phe-Ser-Cys-Asn-Ile-His-Trp-NH2 (SEQ ID NO:9) (peptide)”, in experiment [1], the % Inhibition at 1 µM amounted to 35%.

For the substance “Re-complexed Ala-Tyr-Ile-Gln-Asn-Ala-Cys-Ala-Leu-Gly-NH2 (SEQ ID NO:154) (peptide)”, the % Inhibition at 1 µM in experiment [2] was 31%; in experiment [3], 0%. For “Re-complexed Ac-Val-Ser-Asn-Lys-Tyr-Phe-Ser-Asn-Ile-Cys-His-Trp-NH2 (SEQ ID NO:11) (peptide)”, the % Inhibition at 1 µM in experiment [1] stood at 0%. The same measure, in the same setting: as for “Re-complexed Ac-Val-Ser-Asn-Lys-Cys-Tyr-Phe-Ser-Asn-Ile-His-Trp-NH2 (SEQ ID NO:6) (peptide)”, the figure is 13%. Take “Re-complexed Ala-Tyr-Ile-Gln-Asn-Ala-Ala-Cys-Leu-Gly-NH2 (SEQ ID NO:152) (peptide)”: the results for the % Inhibition at 1 µM in experiment [2] and in experiment [3] were 0% and 1%, respectively. Consider “Re-complexed Ac-Val-Ser-Asn-Lys-Tyr-Phe-Ser-Asn-Cys-Ile-His-Trp-NH2 (SEQ ID NO:10) (peptide)”, for which, in experiment [1], the % Inhibition at 1 µM was determined as 32%. For the substance “Re-complexed Ala-Tyr-Ile-Gln-Asn-Ala-Cys-Pro-Leu-Gly-NH2 (SEQ ID NO:153) (peptide)”, the % Inhibition at 1 µM stood at 2% in experiment [2] and 0% in experiment [3]. With “Re-complexed Ala-Tyr-Ile-Gln-Asn-Ala-Pro-Leu-Gly-Cys-NH2 (SEQ ID NO:149) (peptide)”, the % Inhibition at 1 µM in experiment [2] amounted to 6%; in experiment [3], 0%.

On to “Re-complexed Ac-Val-Ser-Asn-Lys-Tyr-Phe-Cys-Ser-Asn-Ile-His-Trp-NH2 (SEQ ID NO:8) (peptide)”, for which the % Inhibition at 1 µM in experiment [1] is 0%. As to “Re-complexed Ac-Val-Ser-Cys-Asn-Lys-Tyr-Phe-Ser-Asn-Ile-His-Trp-NH2 (SEQ ID NO:4) (peptide)”, in experiment [1], the % Inhibition at 1 µM came out at 0%.
